# Where a chain is given by its changes, count along the chain named. In names and notes the source's numbering stands.
# B1: Variant 12471 (antibody, human IgG1, kappa, name in Kabat numbering, V domains shown)
# VH: EVQLVESGGGLVQPGGSLRLSCAASGFTFADYTMDWVRQAPGKGLEWVGDVNPNSGGSIYNQRFKGRFTFSVDRSKNTLYLQMNSLRAEDTAVYYCARNLGPSFYFDYWGQGTLVTVSS
# VL: DIQMTQSPSSLSASVGDRVTITCKASQDVSIGVAWYQQKPGKAPKLLIYSASYRYTGVPSRFSGSGSGTDFTLTISSLQPEDFATYYCQQYYIYPATFGQGTKVEIKR
# notes: Kabat numbering; also called v12471; FSA version of v9996
# B2: Variant 4431 (antibody, name in Kabat numbering, V domains shown)
# VH: B1 VH with A30T, G49A, F70L
# VL: DIQMTQSPSSLSASVGDRVTITCKASQDVSAGVAWYQQKPGKAPKLLIYSASYRYTGVPSRFSGSGSGTDFTLTISSLQPEDFATYYCQQYYIYPYTFGQGTKVEIK
# notes: also called literature pertuzumab variant
# B3: Variant 4435 (antibody, V domains shown)
# VH: B1 VH with A30T, G49A, G57A, F70L
# VL: B2 VL with A31I
# notes: as for B2
# B4: Variant 4433 (antibody, name in Kabat numbering, V domains shown)
# VH: B1 VH with A30T, G49A, F70L
# VL: B2 VL with A31I, Y96F
# notes: as for B2
# B5: variant 12471 (antibody, human IgG1, kappa, name in Kabat numbering, V domains shown)
# VH: B1 VH
# VL: B1 VL
# notes: FSA, bivalent, wild type Fc; also called v12471; FSA version of v9996
# B6: Variant 4434 (antibody, name in Kabat numbering, V domains shown)
# VH: B1 VH with G49A, F70L
# VL: B2 VL with A31I
# notes: as for B2
# B7: Variant 4436 (antibody, name in Kabat numbering, V domains shown)
# VH: B1 VH with A30T, G49A, F64V, F70L
# VL: B2 VL with A31I
# notes: as for B2
# B8: Variant 4432 (antibody, name in Kabat numbering, V domains shown)
# VH: B1 VH with A30T, G49A, F70L
# VL: B2 VL with A31I, Y96A
# notes: as for B2
# B9: Variant 10014 (pertuzumab T30A / Y96A, one-armed format) (antibody)
# heavy: EVQLVESGGGLVQPGGSLRLSCAASGFTFADYTMDWVRQAPGKGLEWVADVNPNSGGSIYNQRFKGRFTLSVDRSKNTLYLQMNSLRAEDTAVYYCARNLGPSFYFDYWGQGTLVTVSSASTKGPSVFPLAPSSKSTSGGTAALGCLVKDYFPEPVTVSWNSGALTSGVHTFPAVLQSSGLYSLSSVVTVPSSSLGTQTYICNVNHKPSNTKVDKKVEPKSCDKTHTCPPCPAPELLGGPSVFLFPPKPKDTLMISRTPEVTCVVVDVSHEDPEVKFNWYVDGVEVHNAKTKPREEQYNSTYRVVSVLTVLHQDWLNGKEYKCKVSNKALPAPIEKTISKAKGQPREPQVYVYPPSRDELTKNQVSLTCLVKGFYPSDIAVEWESNGQPENNYKTTPPVLDSDGSFALVSKLTVDKSRWQQGNVFSCSVMHEALHNHYTQKSLSLSPG
# light: not shown
# Fc: not shown
# notes: Monovalent one-armed (OA) antibody; also called v10014
# Assays:
# [1] = molecular target: T1, HER2 expressed on the surface of cells (human, UniProt P04626 23-1255); experiment: flow cytometry on MCF7 cells (low HER2), n=1; B50 = concentration at 50% of Bmax
# T1 construct: whole, on cells; also called ErbB2
# Experimental: (§1) Binding of the test antigen-binding constructs to the surface of HER2+ cells was determined by flow cytometry. Cells were washed with PBS and resuspended in DMEM at 1×10⁵ cells/100 μl. 100 μl cell suspension was added into each microcentrifuge tube, followed by 10 μl/tube of the antigen-binding constructs. The tubes were incubated for 2 hr at 4° C. on a rotator. The microcentrifuge tubes were centrifuged for 2 min 2000 RPM at room temperature and the cell pellets washed with 500 μl media. Each cell pellet was resuspended in 100 μl of fluorochrome-labelled secondary antibody diluted in media to 2 μg/sample. The samples were then incubated for lhr at 4° C. on a rotator. After incubation, the cells were centrifuged for 2 min at 2000 rpm and washed in media. The cells were resuspended in 500 μl media, filtered, transferred to a tube containing 5 μl propidium iodide (PI) and analyzed on a BD LSR II flow cytometer according to the manufacturer's instructions. The B50 of the tested antigen-binding constructs was assessed by FACS with data analysis and curve fitting performed in GraphPad Prism. The experiment was carried out once (n=1) in SKBr3 cells, and twice (n=2) in SKOV3, MCF7, and BT-474 cells.
# (§2) The experiment was performed once (n=1) in each cell line.
# [2] = molecular target: T1, HER2 expressed on the surface of cells; experiment: flow cytometry on SKBR3 cells, n=1; B50 = concentration at 50% of Bmax
# Experimental: as §1, §2
# [3] = molecular target: T1, HER2 expressed on the surface of cells; experiment: cell-based or functional assay
# [4] = molecular target: T1, HER2 expressed on the surface of cells; experiment: flow cytometry on SKBR3 cells, n=1
# Experimental: as §1, §2
# [5] = molecular target: T1, HER2 expressed on the surface of cells; experiment: flow cytometry on MCF7 cells (low HER2), n=1
# Experimental: as §1, §2
# [6] = molecular target: T1, HER2 expressed on the surface of cells; experiment: cell-based or functional assay; remark: listed apart in the source
# [7] = molecular target: T1, HER2 expressed on the surface of cells; experiment: flow cytometry on BT474 cells, n=1; B50 = concentration at 50% of Bmax
# Experimental: as §1, §2
# [8] = molecular target: T1, HER2 expressed on the surface of cells; experiment: cell-based or functional assay; remark: listed apart in the source
# [9] = molecular target: T1, HER2 expressed on the surface of cells; experiment: cell-based or functional assay; remark: listed apart in the source
# [10] = molecular target: T1, HER2 expressed on the surface of cells; experiment: cell-based or functional assay; remark: listed apart in the source
# [11] = molecular target: T1, HER2 expressed on the surface of cells; experiment: cell-based or functional assay; remark: listed apart in the source
# [12] = molecular target: T1, HER2 expressed on the surface of cells; experiment: flow cytometry on BT474 cells, n=1
# Experimental: as §1, §2
# [13] = molecular target: T1, HER2 expressed on the surface of cells; experiment: cell-based or functional assay; remark: listed apart in the source
# Recombinant human HER2 [14] = molecular target: T2, Recombinant human HER2 (human, UniProt P04626 23-652); experiment: SPR, Ka ratio to WT pertuzumab
# T2 construct: extracellular domain; Analyte of the SPR assays; also called HER2 ECD; ECD2 of HER2
# Experimental: (§3) The affinity towards HER2 ECD of the samples was measured by SPR on a Biacore T200 as follows. Between 2000 and 4000 RU of anti-human Fc injected at concentration between 5 and 10 μg/ml was immobilized on a CM5 chip using standard amine coupling. Antigen-binding constructs were captured on the anti-human Fc (injected at concentration at 0.51 microg/mL in PBST, 1 min at 10 microl/min) at response levels ranging from 120-270 RU. […] HER2 dilutions were analyzed in duplicates. Sensograms were fit globally to a 1: 1 Langmuir binding model, using the software provided with the Biacore T200. All experiments were conducted at 25° C.
# Recombinant human HER2 [15] = molecular target: T2, Recombinant human HER2; experiment: SPR as in Example 3, average of three independent runs
# Experimental: as §3
# Recombinant human HER2 [16] = molecular target: T3, Recombinant human HER2 (human, UniProt P04626 23-652); experiment: SPR, FSA captured on anti-human Fc, HER2 flowed, 25 C, after protein A and SEC
# T3 construct: extracellular domain; analyte of the SPR assays; also called HER2 ECD; ECD2 of HER2
# Recombinant human HER2 [17] = molecular target: T4, Recombinant human HER2 (human, UniProt P04626 23-652); experiment: SPR at 25 C, affinity against v10014 (itself, reference)
# T4 construct: extracellular domain; also called HER2 ECD
# Experimental: as §3
# Recombinant human HER2 [18] = molecular target: T4, Recombinant human HER2; experiment: SPR at 25 C, affinity against WT v10013
# Experimental: as §3
binder,measurement,setting,value
B1,B50,[1],1.2 nM
same,B50,[2],6.6 nM
same,"growth inhibition IC50 (potency), SKBR3 cells",[3],0.12 nM
same,"growth inhibition span (percentage of cells killed), SKBR3 cells",[3],22%
same,"growth inhibition span ratio to WT, SKBR3 cells",[3],1.3 fold
same,Bmax,[4],27000 MFI
same,Bmax,[5],570 MFI
same,"growth inhibition span (percentage of cells killed), MDA-MB-175 cells",[6],75%
same,B50,[7],3.1 nM
same,"growth inhibition IC50 (potency), NCI-N87 cells, 5 days",[8],1.8 nM
same,"growth inhibition span (percentage of cells killed), NCI-N87 cells",[8],32%
same,"increase in efficacy with respect to the WT, NCI-N87 cells",[8],1.9 fold
same,"increase in potency with respect to the WT, NCI-N87 cells",[8],5.1 fold
same,"growth inhibition IC50 (potency), BT474 cells",[9],0.31 nM
same,"growth inhibition span (percentage of cells killed), BT474 cells",[9],26%
same,"growth inhibition span ratio to WT, BT474 cells",[9],2.5 fold
same,"growth inhibition IC50 (potency), SKBR3 cells, 5 days",[10],0.1 nM
same,"growth inhibition IC50, BT474 cells + EGF, 6 days",[11],0.3 nM
same,"growth inhibition IC50, BT474 cells, 6 days",[11],0.1 nM
same,Bmax,[12],23000 MFI
same,"growth inhibition IC50 (potency), BT474 cells + EGF",[13],1 nM
same,"growth inhibition span (percentage of cells killed), BT474 cells + EGF",[13],27%
same,"growth inhibition span ratio to WT, BT474 cells + EGF",[13],1.5 fold
B2,"SPR Ka, mut/Ka, WT",Recombinant human HER2 [14],3.9 fold
same,Kd,Recombinant human HER2 [15],5 nM
B3,"SPR Ka, mut/Ka, WT",Recombinant human HER2 [14],0.9 fold
same,Kd,Recombinant human HER2 [15],15 nM
B4,"SPR Ka, mut/Ka, WT",Recombinant human HER2 [14],1.3 fold
same,Kd,Recombinant human HER2 [15],10 nM
B5,Kd,Recombinant human HER2 [16],1.8 nM
B6,"SPR Ka, mut/Ka, WT",Recombinant human HER2 [14],3.3 fold
same,Kd,Recombinant human HER2 [15],4 nM
B7,"SPR Ka, mut/Ka, WT",Recombinant human HER2 [14],2.4 fold
same,Kd,Recombinant human HER2 [15],5.7 nM
B8,"SPR Ka, mut/Ka, WT",Recombinant human HER2 [14],1.7 fold
same,Kd,Recombinant human HER2 [15],7.7 nM
B9,Fold wrt v10014,Recombinant human HER2 [17],1 fold
same,Fold wrt WT,Recombinant human HER2 [18],7 fold

# From patent publication US20180273635A1 (Zymeworks, published 2018)
